Molecular target: C3 convertase of the alternative pathway (C3bBb) formed on C3b-coated wells (UniProt P01024)
Test: cell-based or functional assay

Chain of C3 convertase of the alternative pathway (C3bBb) formed on C3b-coated wells (P01024 749-1663 limits assumed, chain 1 of 3): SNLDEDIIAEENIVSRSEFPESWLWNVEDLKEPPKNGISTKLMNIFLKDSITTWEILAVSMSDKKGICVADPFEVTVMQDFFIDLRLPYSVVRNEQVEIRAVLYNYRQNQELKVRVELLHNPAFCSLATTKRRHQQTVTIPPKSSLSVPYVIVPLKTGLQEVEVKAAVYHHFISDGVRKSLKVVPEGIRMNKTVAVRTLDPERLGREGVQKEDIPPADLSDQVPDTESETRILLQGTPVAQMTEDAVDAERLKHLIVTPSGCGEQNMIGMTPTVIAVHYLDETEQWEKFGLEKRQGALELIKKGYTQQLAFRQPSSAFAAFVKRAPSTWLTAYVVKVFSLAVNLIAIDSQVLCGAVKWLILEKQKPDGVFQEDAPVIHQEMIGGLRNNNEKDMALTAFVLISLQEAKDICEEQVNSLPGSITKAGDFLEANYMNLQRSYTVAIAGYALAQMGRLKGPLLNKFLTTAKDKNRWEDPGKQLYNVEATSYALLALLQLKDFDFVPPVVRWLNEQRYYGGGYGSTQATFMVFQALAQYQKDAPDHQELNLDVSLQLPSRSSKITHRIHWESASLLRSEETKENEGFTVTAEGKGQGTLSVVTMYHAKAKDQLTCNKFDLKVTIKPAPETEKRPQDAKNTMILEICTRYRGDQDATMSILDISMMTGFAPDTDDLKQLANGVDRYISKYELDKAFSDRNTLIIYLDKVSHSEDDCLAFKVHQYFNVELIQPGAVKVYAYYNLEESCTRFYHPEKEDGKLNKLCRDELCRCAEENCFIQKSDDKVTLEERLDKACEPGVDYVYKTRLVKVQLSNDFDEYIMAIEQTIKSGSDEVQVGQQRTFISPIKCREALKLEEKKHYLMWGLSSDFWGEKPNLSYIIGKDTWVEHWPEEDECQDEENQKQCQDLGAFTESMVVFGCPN
Chain of C3 convertase of the alternative pathway (C3bBb) formed on C3b-coated wells (P01024 23-667 limits assumed, chain 2 of 3): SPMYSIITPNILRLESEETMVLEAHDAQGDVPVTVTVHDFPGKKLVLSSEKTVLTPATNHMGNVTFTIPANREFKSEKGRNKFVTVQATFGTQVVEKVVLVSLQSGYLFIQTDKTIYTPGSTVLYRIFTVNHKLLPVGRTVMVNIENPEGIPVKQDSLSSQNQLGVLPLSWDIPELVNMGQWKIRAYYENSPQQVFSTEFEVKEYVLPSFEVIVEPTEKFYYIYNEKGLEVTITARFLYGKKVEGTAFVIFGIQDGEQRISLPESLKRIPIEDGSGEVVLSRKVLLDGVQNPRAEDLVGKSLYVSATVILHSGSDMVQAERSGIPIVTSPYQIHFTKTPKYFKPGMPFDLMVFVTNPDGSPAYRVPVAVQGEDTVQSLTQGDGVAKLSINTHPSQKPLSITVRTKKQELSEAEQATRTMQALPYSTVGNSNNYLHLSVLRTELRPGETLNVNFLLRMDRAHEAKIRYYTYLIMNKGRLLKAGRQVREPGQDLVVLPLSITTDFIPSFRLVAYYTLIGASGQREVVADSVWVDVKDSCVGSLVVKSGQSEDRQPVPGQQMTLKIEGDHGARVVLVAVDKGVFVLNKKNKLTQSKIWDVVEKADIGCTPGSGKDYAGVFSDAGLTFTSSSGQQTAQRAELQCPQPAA
Chain of C3 convertase of the alternative pathway (C3bBb) formed on C3b-coated wells (P00751 260-764 limits assumed, chain 3 of 3, further chain): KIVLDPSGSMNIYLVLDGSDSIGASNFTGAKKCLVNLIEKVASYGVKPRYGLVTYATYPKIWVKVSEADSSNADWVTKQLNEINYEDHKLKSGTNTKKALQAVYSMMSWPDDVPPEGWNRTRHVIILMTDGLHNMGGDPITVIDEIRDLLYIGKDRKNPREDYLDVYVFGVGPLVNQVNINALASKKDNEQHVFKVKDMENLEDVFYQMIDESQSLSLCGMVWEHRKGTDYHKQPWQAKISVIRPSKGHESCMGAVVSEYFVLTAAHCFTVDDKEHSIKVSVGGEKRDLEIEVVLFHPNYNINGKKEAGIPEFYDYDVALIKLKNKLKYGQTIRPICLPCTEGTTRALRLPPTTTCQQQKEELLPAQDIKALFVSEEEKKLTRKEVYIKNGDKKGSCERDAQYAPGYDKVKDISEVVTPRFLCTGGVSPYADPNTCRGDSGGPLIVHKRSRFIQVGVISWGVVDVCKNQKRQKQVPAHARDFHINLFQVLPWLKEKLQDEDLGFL

Q: How did the mean IC50 (printed '1050'), acceleration of the dissociation of C3 convertase, pool plasma turn out when “factor H of the pool plasma (ECQ 1) (from UniProt P08603 19-1231)” was run?
A: Its mean IC50 (printed '1050'), acceleration of the dissociation of C3 convertase, pool plasma is 0.058 mg/L.

Q: How did the IC50, acceleration of the dissociation of C3 convertase (sample: Formulated plasma FH, purified protein) turn out when “purified human plasma factor H (batch LFB) (from UniProt P08603 19-1231)” was run?
A: The IC50, acceleration of the dissociation of C3 convertase (sample: Formulated plasma FH, purified protein) was 0.0179 mg/L.

Q: And the IC50, acceleration of the dissociation of C3 convertase (sample: Formulated purified FH plasma)?
A: The IC50, acceleration of the dissociation of C3 convertase (sample: Formulated purified FH plasma) was 0.0546 mg/L.

Q: And the IC50, acceleration of the dissociation of C3 convertase (sample: Plasma FH PBS 1X)?
A: The IC50, acceleration of the dissociation of C3 convertase (sample: Plasma FH PBS 1X) was 0.0152 mg/L.

Q: What about the IC50, acceleration of the dissociation of C3 convertase (sample: Purified FH plasma PBS 1X) of the same substance?
A: The IC50, acceleration of the dissociation of C3 convertase (sample: Purified FH plasma PBS 1X) was 0.0438 mg/L.

Q: Which IC50, acceleration of the dissociation of C3 convertase (sample: FH plasma calibrator (The binding site)) does the source give for “Human Factor H Calibrator NL (The Binding Site, Ref: RP030) (from UniProt P08603 19-1231)” here?
A: Its IC50, acceleration of the dissociation of C3 convertase (sample: FH plasma calibrator (The binding site)) is 0.0681 mg/L.
